Source: paper PMC12977500, “Mechanistic insights into SteAB regulation of cell wall hydrolase RipA in Mycobacterium tuberculosis” (mBio, 2026)

Key:
[1] = target: T1, MtRipACAT (catalytic domain of M. tuberculosis RipA, residues 261–472) (Mycobacterium tuberculosis, UniProt O53168 261-472); assay: BLI; biotinylated MtRipACC immobilised on streptavidin biosensors; Octet-Red384, 25°C; 25 mM HEPES pH 7.5, 150 mM NaCl, 5% glycerol, 1 mg/mL BSA, 0.05% Tween 20; MtSteB 200–3.125 μM or MtRipACAT 80–1.25 μM; steady-state signal, one-site binding model; apparent Kd; conditions: both partners purified
T1 construct: also called MtRipA catalytic domain; NlpC/P60 catalytic domain; not shown: His6, N-terminal, cleaved; SUMO, N-terminal, cleaved
T1 sequence: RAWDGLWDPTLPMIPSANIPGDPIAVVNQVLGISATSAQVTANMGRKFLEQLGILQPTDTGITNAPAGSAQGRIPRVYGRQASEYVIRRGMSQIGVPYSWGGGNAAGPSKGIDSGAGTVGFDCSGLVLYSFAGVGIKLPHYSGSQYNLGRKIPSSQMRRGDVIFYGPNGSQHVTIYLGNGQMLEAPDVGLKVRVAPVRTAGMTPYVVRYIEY

[2] = target: the molecule itself; assay: SEC; analytical SEC, Superdex-200 3.2/300, 25 mM Hepes pH 8, 150 mM NaCl; calibrated with BioRad gel filtration standard

B1: MtRipACC (coiled-coil domain of M. tuberculosis RipA, residues 40–240) (domain or fragment)
chain: DPQTDTIAALIADVAKANQRLQDLSDEVQAEQESVNKAMVDVETARDNAAAAEDDLEVSQRAVKDANAAIAAAQHRFDTFAAATYMNGPSVSYLSASSPDEIIATVTAAKTLSASSQAVMANLQRARTERVNTESAARLAKQKADKAAADAKASQDAAVAALTETRRKFDEQREEVQRLAAERDAAQARLQAARLVAWSSE
modifications: biotin (EZ-Link NHS-PEG4-Biotin, 20 molar excess) in the BLI assays only
notes: Biotinylated and immobilised on streptavidin sensors for BLI; not biotinylated in the crystal of the complex; also called RipA coiled-coil domain; CC domain of RipA; not shown: His6, N-terminal, cleaved; SUMO, N-terminal, cleaved
**Q.** For B1, which Kd [1] is on record?
**A.** The Kd was 6.8 ± 1.4 µM.

B2: CgSteBΔTM (soluble SteB of Corynebacterium glutamicum) (domain or fragment)
chain: APNLPENIDPNAPTSAELVEAETLAEVNAVQADQADSIIDHIVEDVVAGTLTDRPVLVMRTADAEESDVADVSWLLQQAGAINAGSITLEENFFSQDGADQLKSIVANTLPAGAQLSETQLDPGTHAGEALGAALLLNPETGEPLASTAERGLLLNVLRDNGYISYEDGTILPGQVIVMITGDSDGSGDGAFAAETQSLFARALDAQGSGVVVAGRIHTAADTGVIGRLRANPDAAENVSTIDSVNRTWGKMATVLSVREELAGRSGAFGSAASADAASPSLDGTAAAPAQ
notes: The cloning of this construct is not described here; source: E. coli BL21 (DE3), purified ("pure protein sample")
**Q.** Which “stoichiometry N” value [2] does the source give for B2 here?
**A.** Its value is 2.
